# B1: JS003 (antibody, V domains shown)
# VH: QGQLQESGPSLVKPSQTLSLTCTVSGDSITRGYWNWIRKHPGKGLEYIGYISYTGSTYSNLSLKSRVTISRDTSKNQYYLKLSSVTAADTAVYYCATSTGWLDPVDYWGQGTLVTVSS
# VL: DIVMTQSPDSLAVSLGERATINCKASQNVDTSVAWFQQKPGQPPKALIYSASFRYSGVPDRFSGSGSGTDFTLTISSLQAEDVAVYFCQQYYGYPFTFGQGTKLEIK
# notes: humanized PD-L1 specific mAb; Fab part as the heavy chain of m2; as the light chain of m2; Whole humanized mAb; Labelled with CypHer5E in the internalization assay only; also called JS003 antibodies
# Columns and labels:
# Settings in all cases: both partners purified
# [1] = molecular target: T1, recombinant human PD-L1 (Homo sapiens, UniProt Q9NZQ7); assay: SPR; JS003 captured on biosensor; association with recombinant human PD-L1 at pH 7.4; dissociation followed at pH 6.0 (compared with pH 7.4)
# T1 construct: PD-L1, human; the methods are probably in the supplementary material; In the internalization assay hPD-L1 was expressed on CHO-K1 cells; also called hPD-L1
# [2] = molecular target: T1, recombinant human PD-L1; assay: SPR; JS003 captured on biosensor; association with recombinant human PD-L1 at pH 7.4; dissociation followed at pH 5.5 (compared with pH 7.4)
# [3] = molecular target: T1, recombinant human PD-L1; assay: SPR; JS003 immobilized on the chip; serial dilutions of PD-L1 from 0.75 nM to 24 nM flowed through
# T1 sequence (Q9NZQ7 19-290): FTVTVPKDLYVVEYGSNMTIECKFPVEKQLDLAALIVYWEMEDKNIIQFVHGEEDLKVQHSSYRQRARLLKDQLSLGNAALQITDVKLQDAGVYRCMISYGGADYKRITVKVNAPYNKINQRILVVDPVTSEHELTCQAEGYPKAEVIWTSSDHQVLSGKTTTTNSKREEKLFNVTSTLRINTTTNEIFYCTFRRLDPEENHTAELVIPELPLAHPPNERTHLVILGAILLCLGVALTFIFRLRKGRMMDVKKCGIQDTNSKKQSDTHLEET
binder,measurement,setting,value
B1,fold faster dissociation rate at pH 6.0 than at pH 7.4,[1],3.4 fold
same,fold faster dissociation rate at pH 5.5 than at pH 7.4,[2],8.7 fold
same,Kd,[3],0.288 nM

# From publication PMC7445246 (Signal Transduction and Targeted Therapy, 2020)
